Among the data in patent US20200283478A1 (Genentech, published 2020) are IC50 values, retold here.

B1: Compound 237 (peptide)
peptide: WNLV[hArg]IGLLQ-NH2
modifications: N-terminus assumed
SMILES: CC[C@H](C)[C@H](NC(=O)[C@H](CCCCNC(=N)N)NC(=O)[C@@H](NC(=O)[C@H](CC(C)C)NC(=O)[C@H](CC(N)=O)NC(=O)[C@@H](N)Cc1c[nH]c2ccccc12)C(C)C)C(=O)NCC(=O)N[C@@H](CC(C)C)C(=O)N[C@@H](CC(C)C)C(=O)N[C@@H](CCC(N)=O)C(N)=O
notes: also called WNLV(homoR)IGLLQ-NH2
B2: Compound 231 (peptide)
peptide: Ac-ESYPGWNLV[hArg]IGLLR-NH2
SMILES: CC[C@H](C)[C@H](NC(=O)[C@H](CCCCNC(=N)N)NC(=O)[C@@H](NC(=O)[C@H](CC(C)C)NC(=O)[C@H](CC(N)=O)NC(=O)[C@H](Cc1c[nH]c2ccccc12)NC(=O)CNC(=O)[C@@H]1CCCN1C(=O)[C@H](Cc1ccc(O)cc1)NC(=O)[C@H](CO)NC(=O)[C@H](CCC(=O)O)NC(C)=O)C(C)C)C(=O)NCC(=O)N[C@@H](CC(C)C)C(=O)N[C@@H](CC(C)C)C(=O)N[C@@H](CCCNC(=N)N)C(N)=O

Square brackets hold non-standard residues; d marks the D form. Ends that are not written are not given here. hArg = N=C(N)NCCCC[C@H](N)C(=O)O

T2 sequence (Q8NBP7 31-152, stated change not applied, chain 1 of 2): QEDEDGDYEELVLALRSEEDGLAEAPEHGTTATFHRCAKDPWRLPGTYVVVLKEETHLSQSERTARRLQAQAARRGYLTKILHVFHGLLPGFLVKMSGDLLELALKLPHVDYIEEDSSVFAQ
T2 sequence (Q8NBP7 other isoform, or with tags, fused parts or gaps mutant, chain 2 of 2): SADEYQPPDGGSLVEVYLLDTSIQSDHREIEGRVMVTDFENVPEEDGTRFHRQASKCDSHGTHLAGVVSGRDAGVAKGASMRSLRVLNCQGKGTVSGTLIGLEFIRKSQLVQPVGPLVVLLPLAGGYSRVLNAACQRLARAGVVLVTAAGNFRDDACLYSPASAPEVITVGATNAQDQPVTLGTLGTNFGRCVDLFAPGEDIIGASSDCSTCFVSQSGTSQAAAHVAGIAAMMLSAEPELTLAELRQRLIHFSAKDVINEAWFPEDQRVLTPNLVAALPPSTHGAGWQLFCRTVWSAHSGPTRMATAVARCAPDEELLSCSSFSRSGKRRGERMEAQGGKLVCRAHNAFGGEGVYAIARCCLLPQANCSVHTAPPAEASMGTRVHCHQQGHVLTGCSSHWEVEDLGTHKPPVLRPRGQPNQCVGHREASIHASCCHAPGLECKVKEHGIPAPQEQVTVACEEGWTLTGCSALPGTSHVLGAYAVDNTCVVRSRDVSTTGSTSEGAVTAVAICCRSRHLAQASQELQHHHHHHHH

The first assay deals with T1, His-tagged, full-length PCSK9 (human, UniProt Q8NBP7 31-692).
T1 construct: The secreted protein is autocleaved into a prodomain and a catalytic/Cys-rich chain that starts at S153; also called His-PCSK9
T1 sequence (Q8NBP7 other isoform, or with tags, fused parts or gaps limits assumed): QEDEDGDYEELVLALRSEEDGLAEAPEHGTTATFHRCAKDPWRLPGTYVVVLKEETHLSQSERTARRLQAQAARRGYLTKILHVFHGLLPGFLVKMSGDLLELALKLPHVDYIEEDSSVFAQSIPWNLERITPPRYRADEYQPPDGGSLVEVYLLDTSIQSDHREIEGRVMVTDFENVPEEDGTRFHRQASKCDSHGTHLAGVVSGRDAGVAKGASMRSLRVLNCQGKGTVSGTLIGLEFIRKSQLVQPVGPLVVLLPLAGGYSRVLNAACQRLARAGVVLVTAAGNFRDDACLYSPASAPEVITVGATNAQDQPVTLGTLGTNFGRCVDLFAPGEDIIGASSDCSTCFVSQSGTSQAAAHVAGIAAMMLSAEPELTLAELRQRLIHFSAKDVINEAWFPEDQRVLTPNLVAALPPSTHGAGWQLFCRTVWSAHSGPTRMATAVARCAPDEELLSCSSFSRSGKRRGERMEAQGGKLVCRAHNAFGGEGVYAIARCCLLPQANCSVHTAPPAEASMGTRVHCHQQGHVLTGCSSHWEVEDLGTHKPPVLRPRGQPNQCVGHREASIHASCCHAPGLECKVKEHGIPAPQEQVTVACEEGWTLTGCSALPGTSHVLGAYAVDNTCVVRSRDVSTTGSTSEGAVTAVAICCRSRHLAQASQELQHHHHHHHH
In words: TR-FRET competition; His-PCSK9, competitor EGF(A)-Fc. For orientation: In TR-FRET formats the signal depends on donor and acceptor labels being close together.
Description: (§1) Signal generation in the PCSK9 binding assays was dependent upon the binding interaction to bring into close proximity the His-tag on the PCSK9 and the Fc-tag on the ligand. Anti-His-APC was bound to the His-tag, and anti-Fc-europium was bound to the Fc-tag.
(§2) Compounds were solubilized and dilutions were prepared in DMSO. […] The plate was centrifuged to mix the well contents and allowed to incubate for 30 min. […] The normalized TR-FRET ratios were plotted as a function of the compound concentrations, and the IC₅₀ values were determined using a 4-parameter logistic regression.
The IC50 is the concentration at which inhibition is half-maximal. Higher therefore signals weaker potency in that assay. For WNLV[hArg]IGLLR (also: end groups and other groups only in drawing, Structure printed only as a drawing) [Compound 203], the IC50 was found to be 21000 nM.
The same measure, in the same setting: to WNLV[hArg]IGLLR (also: end groups and other groups only in drawing, Structure printed only as a drawing) [Compound 193] belongs at least 50000 nM; to WNLV[hArg]IGLLR (also: further groups not given here, Structure printed only as a drawing) [Compound 208], 450 nM.
Consider WNLV[hArg]IGLLR (also: further groups not given here, Structure printed only as a drawing) [Compound 216], for which the half-inhibitory concentration (IC50) was 6000 nM.
Still for that read-out and setting: to WNLV[hArg]IGLLR (also: end groups and other groups only in drawing, Structure printed only as a drawing) [Compound 199] belongs 980 nM; to WNLV[hArg]IGLLR (also: further groups not given here, Structure printed only as a drawing) [Compound 224], 7000 nM.
Consider WNLV[hArg]IGLLR (also: further groups not given here, Structure printed only as a drawing) [Compound 204], for which the IC50 worked out at 3600 nM.
For WNLV[hArg]IGLLR (also: further groups not given here, Structure printed only as a drawing) [Compound 212], the half-inhibitory concentration (IC50) came to 15000 nM.
Consider WNLV[hArg]IGLLR (also: further groups not given here, Structure printed only as a drawing) [Compound 220], for which the IC50 stood at 37000 nM.
Take WNLV[hArg]IGLLR (also: further groups not given here, Structure printed only as a drawing) [Compound 217]: the concentration for half-maximal inhibition (IC50) is 4100 nM.
Still for that read-out and setting: as for B1, the figure is 8800 nM; as for WNLV[hArg]IGLLN (also: further groups not given here, Structure printed only as a drawing) [Compound 238], 7700 nM.
WNLV[hArg]IGLLR (also: further groups not given here, Structure printed only as a drawing) [Compound 219] showed an IC50 of 9900 nM.
Still for that read-out and setting: to WNLV[hArg]IGLLR (also: further groups not given here, Structure printed only as a drawing) [Compound 221] belongs 9500 nM; to WNLV[hArg]IGLLR (also: further groups not given here, Structure printed only as a drawing) [Compound 210], 3000 nM; to WNLV[hArg]IGLLR (also: further groups not given here, Structure printed only as a drawing) [Compound 206], 1800 nM.
Same read-out and setting: to WNLV[hArg]IGLLR (also: further groups not given here, Structure printed only as a drawing) [Compound 222] belongs 21000 nM.
Same read-out and setting: to WNLV[hArg]IGLLR (also: further groups not given here, Structure printed only as a drawing) [Compound 207] belongs 1300 nM; to B2, 1600 nM; to WNLV[hArg]IGLLR (also: further groups not given here, Structure printed only as a drawing) [Compound 215], 7000 nM.
In the case of WNLV[hArg]IGLLR (also: end groups and other groups only in drawing, Structure printed only as a drawing) [Compound 196], the half-maximal inhibitory concentration (IC50) was determined as 7300 nM.
Consider WNLV[hArg]IGLLR (also: further groups not given here, Structure printed only as a drawing) [Compound 211], for which the IC50 came to 14000 nM.
For the molecule WNLV[hArg]IGLLR (also: end groups and other groups only in drawing, Structure printed only as a drawing) [Compound 200], the half-maximal inhibitory concentration (IC50) worked out at 3200 nM.
On the same count and under the same terms, as for Ac-WNLV[hArg]IGLLR-NH2 (also called Ac-WNLV(homoR)IGLLR-NH2) [Compound 192], the figure is at least 50000 nM; as for WNLV[hArg]IGLLR (also: further groups not given here, Structure printed only as a drawing) [Compound 209], 2900 nM.
With WNLV[hArg]IGLLR (also: end groups and other groups only in drawing, Structure printed only as a drawing) [Compound 194], the half-inhibitory concentration (IC50) was at least 50000 nM.
In the case of WNLV[hArg]IGLLR (also: further groups not given here, Structure printed only as a drawing) [Compound 218], the half-maximal inhibitory concentration (IC50) came to 5000 nM.
WNLV[hArg]IGLLR (also: further groups not given here, Structure printed only as a drawing) [Compound 213]: the IC50 was 3800 nM.
The same measure, in the same setting: to WNLV[hArg]IGLLR (also: end groups and other groups only in drawing, Structure printed only as a drawing) [Compound 202] belongs 2600 nM.
Same read-out and setting: to WNLV[hArg]IGLLR (also: further groups not given here, Structure printed only as a drawing) [Compound 214] belongs 3000 nM; to WNLV[hArg]IGLLR (also: end groups and other groups only in drawing, Structure printed only as a drawing) [Compound 197], 970 nM.
The molecule WNLV[hArg]IGLLR (also: further groups not given here, Structure printed only as a drawing) [Compound 223] yielded a concentration for half-maximal inhibition (IC50) of 21000 nM.
WNLV[hArg]IGLLR (also: further groups not given here, Structure printed only as a drawing) [Compound 226] came in with a concentration for half-maximal inhibition (IC50) of 6200 nM.
WNLV[hArg]IGLLR (also: further groups not given here, Structure printed only as a drawing) [Compound 225] came in with an IC50 of 27000 nM.
Still for that read-out and setting: as for WNLV[hArg]IGLLR (also: end groups and other groups only in drawing, Structure printed only as a drawing) [Compound 201], the figure is 3900 nM; as for WNLV[hArg]IGLLR (also: end groups and other groups only in drawing, Structure printed only as a drawing) [Compound 198], 1700 nM.
For WNLV[hArg]IGLLR (also: end groups and other groups only in drawing, Structure printed only as a drawing) [Compound 205], the half-inhibitory concentration (IC50) was 2800 nM.

Another assay addresses T2, His-tagged PCSK9Δhelix (human, UniProt Q8NBP7 31-152; Q8NBP7 168-692).
T2 construct: Construct M1-Q692 with engineered TEV site, cut by TEV protease; new N-terminus of the catalytic domain is S-A168; also called His-PCSK9Δhelix
In words: TR-FRET competition; His-PCSK9Δhelix, competitor Ab20.
Description: as §1, §2
WNLV[hArg]IGLLR (also: end groups and other groups only in drawing, Structure printed only as a drawing) [Compound 203] gave an IC50 of 1600 nM.
The molecule WNLV[hArg]IGLLR (also: end groups and other groups only in drawing, Structure printed only as a drawing) [Compound 193] had an IC50 of 1500 nM.
Still for that read-out and setting: as for WNLV[hArg]IGLLR (also: further groups not given here, Structure printed only as a drawing) [Compound 208], the figure is 100 nM; as for WNLV[hArg]IGLLR (also: further groups not given here, Structure printed only as a drawing) [Compound 216], 300 nM; as for WNLV[hArg]IGLLR (also: end groups and other groups only in drawing, Structure printed only as a drawing) [Compound 199], 200 nM.
WNLV[hArg]IGLLR (also: further groups not given here, Structure printed only as a drawing) [Compound 224] came in with a half-inhibitory concentration (IC50) of 530 nM.
Still for that read-out and setting: as for WNLV[hArg]IGLLR (also: further groups not given here, Structure printed only as a drawing) [Compound 204], the figure is 870 nM; as for WNLV[hArg]IGLLR (also: further groups not given here, Structure printed only as a drawing) [Compound 212], 1600 nM; as for WNLV[hArg]IGLLR (also: further groups not given here, Structure printed only as a drawing) [Compound 220], 910 nM.
The same measure, in the same setting: as for WNLV[hArg]IGLLR (also: further groups not given here, Structure printed only as a drawing) [Compound 217], the figure is 390 nM; as for B1, 330 nM; as for WNLV[hArg]IGLLN (also: further groups not given here, Structure printed only as a drawing) [Compound 238], 330 nM.
Same read-out and setting: to WNLV[hArg]IGLLR (also: further groups not given here, Structure printed only as a drawing) [Compound 219] belongs 680 nM; to WNLV[hArg]IGLLR (also: further groups not given here, Structure printed only as a drawing) [Compound 221], 650 nM; to WNLV[hArg]IGLLR (also: further groups not given here, Structure printed only as a drawing) [Compound 210], 840 nM.
Molecule WNLV[hArg]IGLLR (also: further groups not given here, Structure printed only as a drawing) [Compound 206] showed a concentration for half-maximal inhibition (IC50) of 870 nM.
Same read-out and setting: as for WNLV[hArg]IGLLR (also: further groups not given here, Structure printed only as a drawing) [Compound 222], the figure is 1400 nM; as for WNLV[hArg]IGLLR (also: further groups not given here, Structure printed only as a drawing) [Compound 207], 320 nM.
As for B2, the IC50 was found to be 17000 nM.
The molecule WNLV[hArg]IGLLR (also: further groups not given here, Structure printed only as a drawing) [Compound 215] registered a concentration for half-maximal inhibition (IC50) of 480 nM.
WNLV[hArg]IGLLR (also: end groups and other groups only in drawing, Structure printed only as a drawing) [Compound 196] returned an IC50 of 1400 nM.
WNLV[hArg]IGLLR (also: further groups not given here, Structure printed only as a drawing) [Compound 211] came in with a half-maximal inhibitory concentration (IC50) of 3800 nM.
As for WNLV[hArg]IGLLR (also: end groups and other groups only in drawing, Structure printed only as a drawing) [Compound 200], the IC50 was 670 nM.
Take Ac-WNLV[hArg]IGLLR-NH2 (also called Ac-WNLV(homoR)IGLLR-NH2) [Compound 192]: the concentration for half-maximal inhibition (IC50) was found to be 5300 nM.
Still for that read-out and setting: as for WNLV[hArg]IGLLR (also: further groups not given here, Structure printed only as a drawing) [Compound 209], the figure is 450 nM.
On to WNLV[hArg]IGLLR (also: end groups and other groups only in drawing, Structure printed only as a drawing) [Compound 194], for which the IC50 stood at 1900 nM.
In the case of WNLV[hArg]IGLLR (also: further groups not given here, Structure printed only as a drawing) [Compound 218], the IC50 turned out to be 260 nM.
The same measure, in the same setting: as for WNLV[hArg]IGLLR (also: further groups not given here, Structure printed only as a drawing) [Compound 213], the figure is 200 nM.
Regarding WNLV[hArg]IGLLR (also: end groups and other groups only in drawing, Structure printed only as a drawing) [Compound 202], the IC50 was 340 nM.
WNLV[hArg]IGLLR (also: further groups not given here, Structure printed only as a drawing) [Compound 214] displayed an IC50 of 210 nM.
Molecule WNLV[hArg]IGLLR (also: end groups and other groups only in drawing, Structure printed only as a drawing) [Compound 197] came in with an IC50 of 90 nM.
On to WNLV[hArg]IGLLR (also: further groups not given here, Structure printed only as a drawing) [Compound 223], for which the IC50 was 1400 nM.
Same read-out and setting: as for WNLV[hArg]IGLLR (also: further groups not given here, Structure printed only as a drawing) [Compound 226], the figure is 350 nM; as for WNLV[hArg]IGLLR (also: further groups not given here, Structure printed only as a drawing) [Compound 225], 1800 nM.
As to WNLV[hArg]IGLLR (also: end groups and other groups only in drawing, Structure printed only as a drawing) [Compound 201], the half-maximal inhibitory concentration (IC50) was determined as 1000 nM.
As for WNLV[hArg]IGLLR (also: end groups and other groups only in drawing, Structure printed only as a drawing) [Compound 198], the IC50 amounted to 250 nM.
Same read-out and setting: to WNLV[hArg]IGLLR (also: end groups and other groups only in drawing, Structure printed only as a drawing) [Compound 205] belongs 640 nM.
